Results on three molecules are retold here after patent publication US20030100489A1 (COLD SPRING HARBOR LABORATORY, published 2003).

One experiment has as its target T1, GAL4db-CDK2 fusion (UniProt P04386 1-147; P24941 1-298, limits assumed).
T1 construct: Two-hybrid construct; also called GALAdb fusion construct containing CDK2
The experiment can be described thus: yeast two-hybrid (HIS3 growth and beta-galactosidase) in YPB2. Here is the method: (§1) Transformed cells were plated with and without histidine.
(§2) After growing cells in medium selective for both plasmids (minus tryptophan and minus leucine), two colonies were picked randomly and were streaked in plates that either contained or lacked histidine.

The target of the next experiment is T2, GAL4db-cdc2 fusion (UniProt P04386 1-147; P06493 1-297, limits assumed).
T2 construct: Two-hybrid construct; also called GALAdb fusion construct containing cdc2
Described as above. Here is the method:
as §1, §2

Another experiment has as its target T3, GAL4db-CDK5 fusion (UniProt P04386 1-147; Q00535 1-292, limits assumed).
T3 construct: Two-hybrid construct; also called GALAdb fusion construct containing CDK5
Described as above. Here is the method: as §1, §2

A further experiment has as its target T4, GAL4db-PCNA fusion (UniProt P04386 1-147; P12004 1-261, limits assumed).
T4 construct: Two-hybrid construct; also called GALAdb fusion construct containing PCNA
The experiment is described as above. Here is the method:
as §1, §2

A further experiment has as its target T5, CDK4 Arg24-Cys mutant (Homo sapiens (Human), UniProt P11802 1-303).
T5 construct: Found in cells from a melanoma patient; also called mutant CDK4; Arg→Cys mutant of CDK4
The experiment can be described thus: immunoprecipitation from mixed Sf9 lysates.

In the next experiment the target is CDK2 (human, UniProt P24941 1-298). The experiment can be described thus: anti-CDK2 immunoprecipitation from TGF-β arrested human keratinocytes.
In a further experiment the target is T6, cdc2 (human, UniProt P06493 1-297).
T6 construct: Untagged: 35S-labelled in vitro translated, or endogenous in HaCaT human keratinocytes; also called CDK1
The experiment is described as follows: anti-CDC2 immunoprecipitation from TGF-β arrested human keratinocytes.

T5 sequence (P11802 whole entry R24C): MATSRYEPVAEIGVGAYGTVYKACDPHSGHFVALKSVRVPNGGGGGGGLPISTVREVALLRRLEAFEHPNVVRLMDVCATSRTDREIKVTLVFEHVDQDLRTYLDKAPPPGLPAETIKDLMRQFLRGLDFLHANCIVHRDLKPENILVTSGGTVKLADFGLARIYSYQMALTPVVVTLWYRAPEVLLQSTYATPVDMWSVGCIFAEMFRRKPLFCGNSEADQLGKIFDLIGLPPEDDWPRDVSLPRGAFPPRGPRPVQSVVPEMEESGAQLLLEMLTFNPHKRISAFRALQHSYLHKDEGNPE
T6 sequence (P06493 whole entry): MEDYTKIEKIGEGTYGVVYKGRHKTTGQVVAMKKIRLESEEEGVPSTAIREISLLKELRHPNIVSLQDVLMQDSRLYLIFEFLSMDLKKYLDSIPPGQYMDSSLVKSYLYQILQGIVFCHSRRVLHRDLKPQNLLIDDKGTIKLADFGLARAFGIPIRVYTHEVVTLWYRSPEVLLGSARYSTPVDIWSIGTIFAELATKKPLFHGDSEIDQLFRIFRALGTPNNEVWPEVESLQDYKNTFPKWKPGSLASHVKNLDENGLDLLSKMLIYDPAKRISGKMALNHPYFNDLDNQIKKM

B1: GAL4ad-p16 fusion (other, not shown: large carriers)
chain: MEPAAGSSMEPSADWLATAAARGRVEEVRALLEAGALPNAPNSYGRRPIQVMMMGSARVAELLLLHGAEPNCADPATLTRPVHDAAREGFLDTLVVLHRAGARLDVRDAWGRLPVDLAEELGHRDVARYLRAAAGGTRGSNHARIDAAEGPSDIPD
notes: Two-hybrid construct in yeast YPB2; also called GALAad-p16
In the case of B1, the binding result in the experiment with GAL4db-CDK2 fusion, with GAL4db-cdc2 fusion, with GAL4db-CDK5 fusion and in the experiment with GAL4db-PCNA fusion was “no binding” each time.

B2: p16 (other)
chain: MEPAAGSSMEPSADWLATAAARGRVEEVRALLEAGALPNAPNSYGRRPIQVMMMGSARVAELLLLHGAEPNCADPATLTRPVHDAAREGFLDTLVVLHRAGARLDVRDAWGRLPVDLAEELGHRDVARYLRAAAGGTRGSNHARIDAAEGPSDIPD
notes: also called human p16
On to B2, for which the binding result with CDK4 Arg24-Cys mutant was “no binding”.

B3: p15 (other)
chain: MREENKGMPSGGGSDEGLATPARGLVEKVRHSWEAGADPNGVNRFGRRAIQVMMMGSARVAELLLLHGAEPNCADPATLTRPVHDAAREGFLDTLVVLHRAGARLDVRDAWGRLPVDLAEERGHRDVAGYLRTATGD
notes: Untagged p15: endogenous in HaCaT human keratinocytes or overexpressed in Sf9 cells (lysate); also called human p15; protein of approx. 15 kDa
In the case of B3, the binding result with CDK2, in the experiment with cdc2 and with CDK4 Arg24-Cys mutant was “no binding” in each case.
